B1: recombinant human D-dopachrome tautomerase (natural protein, UniProt P30046 1-118, looked up)
chain: MPFLELDTNLPANRVPAGLEKRLCAAAASILGKPADRVNVTVRPGLAMALSGSTEPCAQLSISSIGVVGTAEDNRSHSAHFFEFLTKELALGQDRILIRFFPLESWQIGKIGTVMTFL
notes: D-dopachrome tautomerase (DDT), human; The protein was active as a tautomerase, so the initiator methionine is probably removed (surmise); also called rhDDT; DDT; source: E. coli BL21(DE3), pET20b(+), purified (Q sepharose, phenyl sepharose, Superdex75 SEC)
B2: recombinant murine D-dopachrome tautomerase (natural protein, UniProt O35215 1-118, looked up)
chain: MPFVELETNLPASRIPAGLENRLCAATATILDKPEDRVSVTIRPGMTLLMNKSTEPCAHLLVSSIGVVGTAEQNRTHSASFFKFLTEELSLDQDRIVIRFFPLEAWQIGKKGTVMTFL
notes: D-dopachrome tautomerase (DDT), murine; also called rmDDT; murine DDT; source: E. coli BL21(DE3), pET20b(+), purified (Q sepharose, phenyl sepharose, Superdex75 SEC)

Target: the molecule itself
Test: SEC; Superdex75 column in 20 mM sodium phosphate buffer, pH 8.0; last step of the purification

Protein | stoichiometry N
B1 | 3
B2 | 3
